The results in this text go back to patent US20140335107A1 (published 2014).

In assay [1] the target is T1, human CD79b (human, UniProt P40259 29-229).
T1 construct: endogenous CD79b on B-cell lines (BJAB, BJAB-luciferase, DoHH-2); also called PRO36249; CD79b expressed on the surface of BJAB-luciferase cells
T1 sequence: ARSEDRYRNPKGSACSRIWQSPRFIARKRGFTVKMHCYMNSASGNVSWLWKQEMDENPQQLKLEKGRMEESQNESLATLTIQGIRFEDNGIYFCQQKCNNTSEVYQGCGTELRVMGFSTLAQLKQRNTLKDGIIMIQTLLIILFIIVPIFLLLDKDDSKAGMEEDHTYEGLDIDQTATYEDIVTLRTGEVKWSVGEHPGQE
The assay can be described thus: FACS on DoHH-2 cells, Fab (data not shown). Here is the method: To further determine binding of the Fab variants of MA79b-grafted “humanized” antibody or antibody variants, binding of Fab and/or IgG variants to DoHH-2 cells were analyzed using FACS analysis. Further, binding of MA79b-grafted “humanized” antibody variants to BJAB-luciferase cells was analyzed using FACS analysis.
For FACS analysis of Fab variants of MA79b-grafted “humanized” antibody variants (MA79b-grafted “humanized” antibody (IgG version used as a control)), DoHH-2 cells (1×10⁶ in 100 μl volume) were first incubated with or without 1 μg of original mouse anti-CD79b monoclonal antibody (MA79b) for 30 minutes, before adding 1 μg of individual Fab variant (or control antibody).

Assay [2] addresses T2, extracellular domain of human CD79b (huCD79becd) (human, UniProt P40259 29-159).
T2 construct: expressed in CHO cells
T2 sequence: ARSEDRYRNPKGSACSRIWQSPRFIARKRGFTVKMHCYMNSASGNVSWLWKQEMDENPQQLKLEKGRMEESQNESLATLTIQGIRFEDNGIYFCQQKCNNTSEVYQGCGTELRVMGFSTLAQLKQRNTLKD
Nature of the assay: phage selection, Fab on phage. The procedure:
For phage selection, the extracellular domain of CD79b (huCD79becd) (2 μg/ml) was immobilized in PBS on MaxiSorp microtiter plates (Nunc) overnight at 4° C. Plates were blocked for at least 1 h using Casein Blocker (Pierce). Phage were harvested from the culture supernatant and suspended in PBS containing 0.5% BSA and 0.05% Tween 20 (PBSBT). Following addition of the phage library and phage selection for 2 h, microtiter wells were washed extensively with PBS containing 0.05% Tween 20 (PBST) to remove unbound phage and bound phage were eluted by incubating the wells with 100 mM HCl for 30 min. Selection stringency may be increased during successive rounds of selection by increasing the number of washes with PBST or by incubating with soluble huCD79becd for increasing time periods prior to elution.

Assay [3] addresses T3, extracellular domain of human CD79b fused to Fc (huCD79becd-Fc) (human, UniProt P40259 29-159).
T3 construct: expressed in CHO cells; also called huCD79b-Fc; not shown: Fc part of the fusion is not described
T3 sequence: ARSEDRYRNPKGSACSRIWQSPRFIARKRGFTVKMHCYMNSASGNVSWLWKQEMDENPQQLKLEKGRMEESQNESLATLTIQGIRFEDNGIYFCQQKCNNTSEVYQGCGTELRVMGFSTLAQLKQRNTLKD
The assay can be described thus: Biacore (SPR), Fab. Here is the method: (§1) Binding of Fab and IgG variants of MA79b, the MA79b-grafted “humanized” antibody or MA79b-grafted “humanized” antibody variants to immobilized huCD79becd or huCD79b-Fc or the 16 amino acid peptide containing the epitope for MA79b was measured by surface plasma resonance. Affinity determinations were performed by surface plasmon resonance using a BIAcore™-2000. The antigen, huCD79becd or huCD79b-Fc was immobilized (approximately 50-200 RU) in 10 mM sodium acetate pH 4.8 on a CM5 sensor chip. Due to a large avidity effect, affinity measurements were sensitive to the amount of huCD79becd immobilized. For this reason, affinities, determined for samples run on different days, were normalized to MA79b that was run along side as a standard. In experiments that measured binding to the 16 amino acid peptide containing the epitope for MA79b ([…]) (SEQ ID NO: 16), the biotinylated peptide was captured (approximately 20 RU) on a streptavidin coated sensor chip. Purified MA79b-grafted “humanized” antibody variant (as Fab or IgG) (a 2-fold serial dilution of 0.5 to 1000 nM in PBST) was injected at a flow rate of 30 μL/min. Each sample was analyzed with 4-minute association and 10-minute disassociation. After each injection the chip was regenerated using 10 mM Glycine pH 1.7. […]
Background: In SPR one partner is held on a chip, and binding of the other changes the refractive index at the surface.

The target in assay [4] is T2, extracellular domain of human CD79b …. The assay can be described thus: FACS analysis, IgG (data not shown).
Assay [5] has the same target. The assay can be described thus: Biacore (SPR), IgG. The procedure:
as §1

The target in assay [6] is T1, human CD79b. The assay can be described thus: Scatchard analysis on BJAB cells stably expressing cynomolgus CD79b and endogenous human CD79b.
The target in assay [7] is T2, extracellular domain of human CD79b …. Nature of the assay: Biacore (SPR), IgG (FIG. 12). Here is the method:
as §1

In assay [8] the target is T1, human CD79b. Nature of the assay: Scatchard analysis, 125I-labeled IgG competed with unlabeled IgG on BJAB cells stably expressing cynomolgus CD79b and endogenous human CD79b. Here is the method: To further determine binding of the IgG variants having changes in HVR-L2 and HVR-H3 (huMA79b L2/H3), binding of iodinated IgG variants to BJAB cells expressing human CD79b and cynomologous CD79b was analyzed and Scatchard analysis was performed.
For Scatchard analysis, 0.5 nM I¹²⁵ labeled MA79b or huMA79b L2/H3 was competed against unlabeled MA79b or huMA79b L2/H3, respectively, ranging from 50 to 0.02 nM (12 step 1:2 serial dilution) in the presence of a transfected BJAB line stably expressing cynomologous-CD79b and endogenous human-CD79b. After a four hour incubation at 4° C., cells were washed and cell pellet counts were read by a gamma counter (1470 WIZARD Automatic Gamma Counter; Perkin Elmer, Walthem, Mass.). All points were done in triplicate and counted for 10 minutes. The average CPM was used for Kd calculation using the New Ligand (Genentech, South San Francisco, Calif.) program.

Assay [9] addresses T3, extracellular domain of human CD79b …. Nature of the assay: Biacore (SPR), Fab against IgG on immobilized huCD79becd-Fc. Here is the method:
as §1

B1: huMA79b graft variant with HVR-H3 of SEQ ID NO: 94 (huMA79b H3-10), Fab (Fab, name in Kabat numbering, V domains shown)
VH: EVQLVESGGGLVQPGGSLRLSCAASGYTFSSYWIEWVRQAPGKGLEWVGEILPGGGDTNYNEIFKGRFTISADTSKNTAYLQMNSLRAEDTAVYYCTRRVPIRLDYWGQGTLVTVSS
VL: DIQMTQSPSSLSASVGDRVTITCKASQSVDYDGDSFLNWYQQKPGKAPKLLIYAASNLESGVPSRFSGSGSGTDFTLTISSLQPEDFATYYCQQSNEDPLTFGQGTKVEIKR
notes: selected as Fab on phage; also made as soluble Fab for FACS; also called H3-10 mutation
As for B1, the binding result (with human CD79b [1]; in assay [2]) was “binds” throughout.

B2: huMA79b graft variant with HVR-L2 of SEQ ID NO: 22 (huMA79b L2-2), Fab (Fab, name in Kabat numbering, V domains shown)
VH: EVQLVESGGGLVQPGGSLRLSCAASGYTFSSYWIEWVRQAPGKGLEWVGEILPGGGDTNYNEIFKGRFTISADTSKNTAYLQMNSLRAEDTAVYYCTRRVPVYFDYWGQGTLVTVSS
VL: DIQMTQSPSSLSASVGDRVTITCKASQSVDYDGDSFLNWYQQKPGKAPKLLIYAARKLGRGVPSRFSGSGSGTDFTLTISSLQPEDFATYYCQQSNEDPLTFGQGTKVEIKR
notes: selected as Fab on phage; also made as soluble Fab for FACS and Biacore; also called L2-2 mutation
In the case of B2, in [3], the “fold improvement in monomeric binding compared to MA79b (Fab)” value came to 5 fold.

B3: MA79b-grafted humanized antibody (huMA79b graft), IgG (antibody, V domains shown)
VH: EVQLVESGGGLVQPGGSLRLSCAASGYTFSSYWIEWVRQAPGKGLEWVGEILPGGGDTNYNEIFKGRFTISADTSKNTAYLQMNSLRAEDTAVYYCTRRVPVYFDYWGQGTLVTVSS
VL: DIQMTQSPSSLSASVGDRVTITCKASQSVDYDGDSFLNWYQQKPGKAPKLLIYAASNLESGVPSRFSGSGSGTDFTLTISSLQPEDFATYYCQQSNEDPLTFGQGTKVEIKR
notes: expressed as an IgG
Consider B3, for which the “fold reduction of binding affinity” value in [4] was > 100 fold. Further, in assay [5], the “fold loss of binding affinity” value is > 50 fold.

B4: MA79b-grafted humanized antibody variant 28 (huMA79b.v28) (antibody, human IgG1, kappa)
light: DIQLTQSPSSLSASVGDRVTITCKASQSVDYEGDSFLNWYQQKPGKAPKLLIYAASNLESGVPSRFSGSGSGTDFTLTISSLQPEDFATYYCQQSNEDPLTFGQGTKVEIKRTVAAPSVFIFPPSDEQLKSGTASVVCLLNNFYPREAKVQWKVDNALQSGNSQESVTEQDSKDSTYSLSSTLTLSKADYEKHKVYACEVTHQGLSSPVTKSFNRGEC
heavy: not shown
notes: IgG
Consider B4, for which, in the assay with human CD79b [6], the affinity, expressed as Kd, was 0.44 nM. That is a sub-nanomolar value.

B5: MA79b-grafted humanized antibody variant 17 (huMA79b.v17) (antibody, human IgG1, kappa, V domains shown)
VH: EVQLVESGGGLVQPGGSLRLSCAASGYTFSSYWIEWVRQAPGKGLEWIGEILPGGGDTNYNEIFKGRATFSADTSKNTAYLQMNSLRAEDTAVYYCTRRVPVYFDYWGQGTLVTVSS
VL: DIQLTQSPSSLSASVGDRVTITCKASQSVDYDGDSFLNWYQQKPGKAPKLLIYAASNLESGVPSRFSGSGSGTDFTLTISSLQPEDFATYYCQQSNEDPLTFGQGTKVEIKR
notes: IgG
For the molecule B5, the binding result in assay [7] was “binds”.

B6: MA79b-grafted humanized antibody variant 32 (huMA79b.v32) (antibody, human IgG1, kappa, V domains shown)
VH: EVQLVESGGGLVQPGGSLRLSCAASGYTFSSYWIEWVRQAPGKGLEWIGEILPGGGDTNYNEIFKGRATFSADTSKNTAYLQMNSLRAEDTAVYYCTRRVPIRLDYWGQGTLVTVSS
VL: DIQLTQSPSSLSASVGDRVTITCKASQSVDYSGDSFLNWYQQKPGKAPKLFIYAASNLESGVPSRFSGSGSGTDFTLTISSLQPEDFATYYCQQSNEDPLTFGQGTKVEIKR
notes: IgG
In the case of B6, the Kd – broadly, the constant that tells how readily two partners part at equilibrium – in the assay with human CD79b [6] was 0.24 nM.

B7: murine anti-CD79b monoclonal antibody MA79b (antibody, V domains shown)
VL: DIVLTQSPASLAVSLGQRATISCKASQSVDYDGDSFLNWYQQKPGQPPKLFIYAASNLESGIPARFSGSGSGTDFTLNIHPVEEEDAATYYCQQSNEDPLTFGAGTELELKR
VH: EVQLQQSGAELMKPGASVKISCKATGYTFSSYWIEWVKQRPGHGLEWIGEILPGGGDTNYNEIFKGKATFTADTSSNTAYMQLSSLTSEDSAVYYCTRRVPVYFDYWGQGTSVTVSS
notes: murine monoclonal IgG; 125I-labeled in the Scatchard assay; also called murine CD79b antibody
B7 had a Kd with human CD79b [8] of 0.63 nM. For the same molecule, the “fold avidity component (dimeric IgG binding against monomeric Fab binding)” value in [9] turned out to be 100 fold.
